Where a chain is given by its changes, count along the chain named.
T1: human CD131 (human, UniProt P32927 17-897)
T1 sequence: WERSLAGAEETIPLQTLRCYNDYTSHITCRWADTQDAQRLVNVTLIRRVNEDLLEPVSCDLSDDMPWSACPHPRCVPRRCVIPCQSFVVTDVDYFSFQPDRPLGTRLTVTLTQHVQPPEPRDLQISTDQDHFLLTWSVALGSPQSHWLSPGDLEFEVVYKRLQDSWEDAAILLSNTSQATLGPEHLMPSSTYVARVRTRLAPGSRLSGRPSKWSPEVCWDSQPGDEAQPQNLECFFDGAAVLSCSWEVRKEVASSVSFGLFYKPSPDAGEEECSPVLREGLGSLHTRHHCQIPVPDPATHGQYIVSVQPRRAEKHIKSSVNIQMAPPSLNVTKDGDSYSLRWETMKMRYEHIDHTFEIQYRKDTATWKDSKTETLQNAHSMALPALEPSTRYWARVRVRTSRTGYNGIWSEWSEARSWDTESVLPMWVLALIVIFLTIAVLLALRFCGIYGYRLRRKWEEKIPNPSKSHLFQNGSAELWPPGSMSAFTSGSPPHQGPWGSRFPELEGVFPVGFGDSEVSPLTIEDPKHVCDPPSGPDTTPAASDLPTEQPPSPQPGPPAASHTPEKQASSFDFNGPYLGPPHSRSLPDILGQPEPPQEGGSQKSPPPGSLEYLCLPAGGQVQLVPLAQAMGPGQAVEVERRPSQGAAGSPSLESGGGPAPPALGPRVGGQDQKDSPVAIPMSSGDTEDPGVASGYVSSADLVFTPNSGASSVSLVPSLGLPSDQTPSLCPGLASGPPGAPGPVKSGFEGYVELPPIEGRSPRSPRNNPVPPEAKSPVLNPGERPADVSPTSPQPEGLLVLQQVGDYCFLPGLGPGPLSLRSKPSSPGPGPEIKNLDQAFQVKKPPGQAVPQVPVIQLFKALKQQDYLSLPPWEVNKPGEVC

B1: 9A2-VR39.46 (antibody, V domains shown)
VH: EVQLLESGGGLVQPGGSLRLSCAASDVDFGWYHMLWVRQAPGKGLEWVSSINGRGRVTYYADSVKGRFTISRDNSKNTLYLQMNSLRAEDTAVYYCARFYDSFFDIWGQGTMVTVSS
VL: DIQMTQSPSSVSASVGDRVTITCRASQGISSWLAWYQQKPGKAPKLLIYAASSLQSGVPSRFSGSGSGTDFTLTISSLQPEDFATYYCQQANSFPITFGQGTRLEIKR
B2: 9A2-VR24.27 (antibody, V domains shown)
VH: EVQLLESGGGLVQPGGSLRLSCAASGFTFPWYRVHWVRQAPGKGLEWVSSIRSSGGFPYYHQKVKGRFTISRDNSKNTLYLQMNSLRAEDTAVYYCARFYDSFFDIWGQGTMVTVSS
VL: B1 VL
B3: 9A2-VR24.82 (antibody, V domains shown)
VH: B2 VH with R52K, S53H, S54G, G56R, F57Y, P58T, H61A, Q62D, K63S
VL: B1 VL
B4: 9A2-VR24.93 (antibody, V domains shown)
VH: B2 VH with S53N, S54E, G55N, F57W, P58T, H61A, Q62D, K63S
VL: B1 VL
B5: 9A2-VR24.84 (antibody, V domains shown)
VH: B2 VH with R52H, S53T, S54H, G55R, G56P, F57W, P58T, H61A, Q62D, K63S
VL: B1 VL
B6: 9A2-VR24.33 (antibody, V domains shown)
VH: B2 VH with H61N, Q62H
VL: B1 VL
B7: 9A2-VR24.57 (antibody, V domains shown)
VH: B2 VH with P58T, H61N, Q62P, G66H
VL: B1 VL
B8: 9A2-VR24.81 (antibody, V domains shown)
VH: B2 VH with R52H, S53T, S54H, G55R, G56N, F57Y, P58T, H61A, Q62D, K63S
VL: B1 VL
B9: 9A2-VR39.139 (antibody, V domains shown)
VH: B1 VH with D26P, V27R, D28W, F29E, G30W, W31N
VL: B1 VL
B10: 9A2-VR39.93 (antibody, V domains shown)
VH: B1 VH with D26G, V27F, D28T, G30S, W31H, A61N, D62P, S63A, V64W, G66K
VL: B1 VL
B11: 9A2-VR24.111 (antibody, V domains shown)
VH: B2 VH with Y59M, H61N, Q62P, K63H
VL: B1 VL
B12: 9A2-VR24.19 (antibody, V domains shown)
VH: B2 VH with R52H, S53T, S54Q, G55S, G56K, F57W, P58T, H61A, Q62D, K63S
VL: B1 VL
B13: 9A2-VR24.56 (antibody, V domains shown)
VH: B2 VH with P58T, H61N, Q62P, K63A, K65R
VL: B1 VL
B14: 9A2-VR24.97 (antibody, V domains shown)
VH: B2 VH with H61S, Q62L, K63S
VL: B1 VL
B15: 9A2-VR24.24 (antibody, V domains shown)
VH: B2 VH with S53T, S54D, G56T, F57W, P58T, H61A, Q62D, K63S
VL: B1 VL
B16: 9A2-VR24.07 (antibody, V domains shown)
VH: B2 VH with R52H, S53T, S54H, G55R, G56N, F57S, P58T, H61A, Q62D, K63S
VL: B1 VL
B17: 9A2-VR24.78 (antibody, V domains shown)
VH: B2 VH with R52H, S53T, S54H, G55R, G56N, F57Y, P58T, H61A, Q62D, K63S
VL: B1 VL
B18: 9A2-VR24.102 (antibody, V domains shown)
VH: B2 VH with Y59F, H61N, Q62S, K63S
VL: B1 VL
B19: 9A2-VR24.107 (antibody, V domains shown)
VH: B2 VH with H61N, Q62P, K63F
VL: B1 VL
B20: 9A2-VR39.140 (antibody, V domains shown)
VH: B1 VH with D26A, V27Y, D28S, F29E, G30M
VL: B1 VL
B21: 9A2-VR24.10 (antibody, V domains shown)
VH: B2 VH with R52H, S53T, S54G, G55S, G56Q, F57W, P58T, H61A, Q62D, K63S
VL: B1 VL
B22: 9A2-VR39.174 (antibody, V domains shown)
VH: B1 VH with D26G, V27F, D28T, G30S, W31H, D62R, S63D, V64H, G66K
VL: B1 VL
B23: 9A2-VR39.122 (antibody, V domains shown)
VH: B1 VH with D26A, V27G, D28F, G30E, W31Y
VL: B1 VL
B24: 9A2-VR24.12 (antibody, V domains shown)
VH: B2 VH with R52H, S53T, S54H, G55Y, G56Q, F57Y, P58T, H61A, Q62D, K63S
VL: B1 VL
B25: 9A2-VR24.87 (antibody, V domains shown)
VH: B2 VH with R52H, S53T, S54H, G55S, G56D, F57W, P58T, H61A, Q62D, K63S
VL: B1 VL
B26: 9A2-VR39.162 (antibody, V domains shown)
VH: B1 VH with D26G, V27F, D28T, G30S, W31H, T58P, Y59Q, Y60M, D62Q, S63E
VL: B1 VL
B27: 9A2-VR24.30 (antibody, V domains shown)
VH: B2 VH with H61N, Q62R, K63R
VL: B1 VL
B28: 9A2-VR24.110 (antibody, V domains shown)
VH: B2 VH with H61N, Q62N, K63H
VL: B1 VL
B29: 9A2-VR24.91 (antibody, V domains shown)
VH: B2 VH with R52H, S53T, S54H, G55R, G56Q, F57V, P58T, H61A, Q62D, K63S
VL: B1 VL
B30: 9A2-VR24.76 (antibody, V domains shown)
VH: B2 VH with R52Q, S53T, S54H, G56V, F57W, P58T, H61A, Q62D, K63S
VL: B1 VL
B31: 9A2-VR24.04 (antibody, V domains shown)
VH: B2 VH with R52H, S53T, S54H, G55R, G56H, F57I, P58T, H61A, Q62D, K63S
VL: B1 VL
B32: 9A2-VR24.98 (antibody, V domains shown)
VH: B2 VH with Y59H, H61N, Q62S, K63V
VL: B1 VL
B33: 9A2-VR24.44 (antibody, V domains shown)
VH: B2 VH with Q62P, K63S
VL: B1 VL
B34: 9A2-VR24.122 (antibody, V domains shown)
VH: B2 VH with P58T, H61N, Q62S, K63E
VL: B1 VL
B35: 9A2-VR39.148 (antibody, V domains shown)
VH: B1 VH with D26G, V27F, D28T, G30S, W31H, Y59H, Y60V, D62Q, S63E
VL: B1 VL
B36: 9A2-VR24.124 (antibody, V domains shown)
VH: B2 VH with P58T, H61T, Q62P, K63S, K65R
VL: B1 VL
B37: 9A2-VR39.177 (antibody, V domains shown)
VH: B1 VH with D26G, V27F, D28T, G30S, W31H, D62L, S63E, V64Y, G66K
VL: B1 VL
B38: 9A2-VR39.77 (antibody, V domains shown)
VH: EVQLLESGGGLVQPGGSLRLSCAASGFTFSHYHMLWVRQAPGKGLEWVSSINGRGRVTYYQWPMNKRFTISRDNSKNTLYLQMNSLRAEDTAVYYCARFYDSFFDIWGQGTMVTVSS
VL: B1 VL
B39: 9A2-VR24.55 (antibody, V domains shown)
VH: B2 VH with P58T, H61N, Q62P, K63S, G66N
VL: B1 VL

Target: T1, human CD131
Assay: cell-based or functional assay

Row | IC50 GM-CSF, TF-1 proliferation [nM] | Binder
1 | 3.34 | B1
2 | 0.25 | B2
3 | 3.99 | B3
4 | 0.92 | B4
5 | 0.21 | B5
6 | 0.34 | B6
7 | 0.33 | B7
8 | 0.48 | B8
9 | 21.5 | B9
10 | 0.28 | B10
11 | 0.42 | B11
12 | 0.98 | B12
13 | 0.48 | B13
14 | 0.16 | B14
15 | 1.09 | B15
16 | 1.17 | B16
17 | 0.65 | B17
18 | 0.32 | B18
19 | 0.3 | B19
20 | 42.5 | B20

Row | IC50 GM-CSF, TF-1 proliferation [nM] | Binder
21 | 9.52 | B21
22 | 0.64 | B22
23 | 15 | B23
24 | 0.93 | B24
25 | 2.37 | B25
26 | 3.6 | B26
27 | 0.25 | B27
28 | 0.24 | B28
29 | 0.5 | B29
30 | 12.4 | B30
31 | 0.7 | B31
32 | 0.25 | B32
33 | 0.4 | B33
34 | 0.66 | B34
35 | 1.12 | B35
36 | 0.54 | B36
37 | 0.52 | B37
38 | 2.03 | B38
39 | 0.6 | B39
